Data: article PMC9364786 (Journal of Virology, 2022)

Molecular target: SARS-CoV-2 subdomain 1 (SBD) protein, D614G (SARS-CoV-2, UniProt P0DTC2)
Test: ELISA
Conditions: both partners purified

B1: MAb 084-7D (antibody, V domains shown)
VH: EVQLLESGGGLVQPGGSLRLSCAASGFSFSSYAMNWVRQAPGKGLEWVSAISGGGDNIYYADSVKGRFTISRDNYKNTLHLQMKSLRAEDTAVYYCAKDHPSWGSSFLNWGQGILVIVSS
VL: DIQMTQSPSTLSASVGDRVTITCRASQSISSWLAWYQQKPGRAPKLLIYTASNLESGVPSRFSGSGSGTEFSLTISSLQPDDFATYYCQQYNSYSLTFGGGTRVEIK
notes: also called 084-7D MAb
B1: no binding (tested: 5 μg/mL starting concentration).
